The values below come from the DeepSol protein solubility set.

The data set is described as follows: soluble on expression in E. coli; label from the status in PepcDB or PDB records.
For the sequence “MVAEITAPKSMGKVLGYNFSKVTAGNASVILTSSMSVDANGETNFERALTDMDMRIPSGIRTKKTVFHCSLNPHPDDRLTTEQLQDIAREYMEKMGYGKQPYIVFKHNDIAREHIHIVSLRVDSYGKKLPYKFEARRSKRITDELERKYGLIPSGNRRSRHETHAENVLKTADVKQGDVRRQIAAVVRAVLKRYAFRSLGEMNLLLARYHIVAEEVRKEYKGKRYDGLVYAITDDAGEKRMIPLHAGKIGRGTGYAAVVRHFEKSKALIKEKAPMLRNAIIEVMQSSPDKERFSEEMKKRGIDVHIRQNEQGRIYGITFISDEAGIAANGSRLGKGYSAHVFNDYFLGGENPFLDYRRQEIRELPTVRSAPEMLPEAETGDDCYDEPVRTDESGIVVHGIDYKELAFQRKLRNRRHKQDITGKRRT”, the “soluble on expression in E. coli” value was “not soluble”.
With “MLDHVSITVSDIAVAEPFYDAIMAALGVVKVGARGDWLGYGERARPEHPDRVYLSIRKGDRPEPAYGRHWCFKATSRAVVDAFWQAGLAHGGVDQGAPGLRDYHPGYYAAFIADPDGNRLEAVCHTLG”, the “soluble on expression in E. coli” value was “not soluble”.
As for “GPLGSGGLFFNALKNCKENFTVLQTIRQQQSTLNGSWVALLQTRNTLNRAGIRYMMDQNNIGSGSTVAELMESASISLKQAEKNWADYEALPRDPRQSTAAAAEIKRNYDIYHNALAELIQLLGAGKINEFFDQPTQGYQDGFEKQYVAYMEQNDRLHDIAVSDNNASYSHHHHHH”, the “soluble on expression in E. coli” value is “soluble”.
In the case of “MVSRLSTGILDFDKLIQGGIPQGFFIALTGEPGTGKTIFSLHFIAKGLRDGDPCIYVTTEESRDSIIRQAKQFNWDFEEYIEKKLIIIDALMKEKEDQWSLVNLTPEELVNKVIEAKQKLGYGKARLVIDSVSALFLDKPAMARKISYYLKRVLNKWNFTIYATSQYAITTSQAFGFGVEHVADGIIRFRRMIRNGELHRYILIEKMRQTDHDKHVWEIDIVNGKGIVLKGRLEE”, the “soluble on expression in E. coli” value is recorded as “soluble”.
With “MLSSKEVYARLDAILPSSVDREDAESNLNAGEIEYAITALLDDAYTSVGLSDAVVSLIRENYDDGPVIDMLDALLYFQKLNSGGDAVRMQR” the entry was “not soluble”; with “MGSDKIHHHHHHMELASSYDKHDIRYLSASEMAELRVTNVAANQSPADTSQVSTRPDPAPVPVPAPDARQQVESAAVAFVKDLIEHHGDNDDFALAQVQASYARTVDYYGKLTNLSSIIQDKRNYYRRWPERIYNVRNDSIVVTCANDRCMVSGIYDWVVRSPSIHKQDKGASNFSYTISTGPYPKIIAETSKVRS”, “not soluble”.
For “MGSDKIHHHHHHMILKTNLFGHTYQFKSITDVLAKANEEKSGDRLAGVAAESAEERVAAKVVLSKMTLGDLRNNPVVPYETDEVTRIIQDQVNDRIHDSIKNWTVEELREWILDHKTTDADIKRVARGLTSEIIAAVTKLMSNLDLIYGAKKIRVIAHANTTIGLPGTFSARLQPNHPTDDPDGILASLMEGLTYGIGDAVIGLNPVDDSTDSVVRLLNKFEEFRSKWDVPTQTCVLAHVKTQMEAMRRGAPTGLVFQSIAGSEKGNTAFGFDGATIEEARQLALQSGAATGPNVMYFETGQGSELSSDAHFGVDQVTMEARCYGFAKKFDPFLVNTVVGFIGPEYLYDSKQVIRAGLEDHFMGKLTGISMGCDVCYTNHMKADQNDVENLSVLLTAAGCNFIMGIPHGDDVMLNYQTTGYHETATLRELFGLKPIKEFDQWMEKMGFSENGKLTSRAGDASIFLK”, the “soluble on expression in E. coli” value is given as “not soluble”.
Take “MSLRVVLKLGTSVLTAGTDRLHRPRLVDLMRDIAAVSAQGHEVVLVSSGAVTAGWEALGFPPRERTLAEKQLLAAVGQVQLMHLYTSLAELYGLRSAQLLLTADDFRERTRYLNARTTLEGCLSRGVLPVINENDTVAVEQIKVGDNDTLSAFVANLVEADLLLILTDAPGLYTADPRTHPDATLIPVVERVTPDIWALAGGAGSHRGTGGMHTKIQAAEIATRAGTPVVIAPGDLPEALRRVVDGEALGTRFLAHGTRLEARKRWILAEIAHGRLLLDGGAAQAVRERGSSLLPAGIRQVEGDFERGHTVRLLAPDGQELGRGLTRYRADDLRRVCGHHSREIEALLGYTYGEEAVHRDDLVLLEGHHHHHH”: the “soluble on expression in E. coli” value was “soluble”.
Turning to “MATNESLKEQLAKRNGRKPAANGNGEPITLKALLASPKVKKRFEEVLDKRAPQFMTSIINLYSNDSGLQKCDPMTVISSAMVAASLDLPIDKNLGYAWIVPYYDRKTKSYRAQFQLGYKGYIQLALRSGQYRYINAIPVRKGELIKWDPLTEEIEIDFEARESDEVIGYAAFFELLNGFRKTVYWRKEDVEAHRQKYSKSGFGWENDWDAMALKTVIKSLLSRWGILSVEMQKAVIEDDEERLNPPADNVVEIEPEKPEVPENDEPVFELPLDVEVEVPFEEDEKDGDDQEG”, the “soluble on expression in E. coli” value was “not soluble”.
